Consider six molecules from patent publication US20120213799A1 (EISAI R AND D MANAGEMENT, published 2012).

Experiment [1] deals with T1, R68A mutated FKN-SEAP-His (human, UniProt P78423 25-340).
T1 construct: also called R68A mutant; not shown: The SEAP reporter, the residues encoded by the NotI junction and the C-terminal (His)10 tag
T1 sequence: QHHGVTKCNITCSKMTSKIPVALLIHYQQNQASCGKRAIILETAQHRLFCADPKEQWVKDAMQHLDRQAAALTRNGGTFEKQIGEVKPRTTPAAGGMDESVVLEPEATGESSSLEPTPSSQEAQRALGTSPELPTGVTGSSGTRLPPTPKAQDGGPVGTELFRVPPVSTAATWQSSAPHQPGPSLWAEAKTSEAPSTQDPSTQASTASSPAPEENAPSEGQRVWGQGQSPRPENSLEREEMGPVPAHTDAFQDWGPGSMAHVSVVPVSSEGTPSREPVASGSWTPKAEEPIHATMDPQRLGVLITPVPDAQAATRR
Put plainly: sandwich ELISA, H3-2L4 coated, mutant hFKN-SEAP added, alkaline phosphatase read at 405 nm. On the procedure: Mouse anti-human FKN monoclonal antibodies (1F3, 1G1, 2B2, 3D5, 6D1, 7F6) and H3-2L4 antibody were coated on an ELISA plate (Nunc) overnight at 4° C. The antibody solutions were removed. PBS solution containing 1% BSA was added to each well and incubated for 1 hour at room temperature, and the wells were washed with Tris-buffered saline (pH 7.4) containing 0.05% Tween 20. The wild type and R68A mutated FKN-SEAP-His solution (1, 0.5, 0.25, 0.125 nM) were added to the wells and incubated for 2 hours at room temperature. The antigen solutions were removed and washed with washing solution. p-Nitrophenyl phosphate solution (Thermo Scientific) was added to each well and incubated for 30 minutes at room temperature. The reaction was terminated with 1N NaOH solution and absorbance at 405 nm was measured.
(An ELISA detects its analyte on a solid surface through an enzyme-linked reagent.)

Experiment [2] deals with T2, recombinant human FKN (R&D Systems, Catalog No. 362-CX/CF) (human, UniProt P78423 25-100).
T2 sequence: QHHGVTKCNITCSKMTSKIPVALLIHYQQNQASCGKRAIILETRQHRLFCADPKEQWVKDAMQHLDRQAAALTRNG
Put plainly: cell-based or functional assay.

Experiment [3] deals with T3, soluble hFKN-SEAP (extracellular region of human fractalkine conjugated to secreted alkaline phosphatase) (human, UniProt P78423 25-341).
T3 construct: Used as culture supernatant of HEK293E cells; also called soluble FKN conjugated to SEAP; not shown: secreted alkaline phosphatase (SEAP) from the vector pcDNA3.1 (+) dSalI SEAP
T3 sequence: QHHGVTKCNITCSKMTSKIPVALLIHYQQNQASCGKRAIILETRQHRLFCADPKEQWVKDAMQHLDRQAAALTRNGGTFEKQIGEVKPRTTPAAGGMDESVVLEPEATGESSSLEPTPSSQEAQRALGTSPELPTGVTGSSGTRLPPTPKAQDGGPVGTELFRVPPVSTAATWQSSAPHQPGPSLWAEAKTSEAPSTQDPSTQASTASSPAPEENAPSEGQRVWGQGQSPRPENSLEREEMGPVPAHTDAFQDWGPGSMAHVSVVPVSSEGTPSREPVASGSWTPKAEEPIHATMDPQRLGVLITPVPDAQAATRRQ
Kind of experiment: BIACORE, mAb captured by anti-human IgG, FKN-SEAP as analyte. As for the experimental part: (§1) BIACORE® assays were performed as follows. Recombinant Protein-A/G (Pierce Chemical) was immobilized on BIACORE® sensor chips (CM5) that were pre-activated with amine coupling reagents (GE Healthcare). Purified mAbs were added into the sensor chips at a concentration of 0.2 μg/ml. Soluble antigens (soluble FKN conjugated to secreted alkaline phosphatase (SEAP) or control SEAP proteins) were added into the sensor chips at various concentrations (0 to 200 nM). Association of added antigens with mAbs captured on the sensor chips was monitored continuously, and the relative binding response of the antigens was determined using a BIACORE® A100 system (GE Healthcare).
The BIACORE® assays were performed as described above. However, for humanized and chimeric mAbs, anti-human IgG mouse mAb (GE Healthcare) was used as the capturing antibody on the sensor chip.
For orientation: SPR reads the build-up and loss of mass on a sensor chip optically.

Experiment [4] addresses T3, soluble hFKN-SEAP (extracellular region …). Put plainly: BIACORE, mAb captured on Protein-A/G, soluble FKN-SEAP as analyte (also ELISA on captured hFKN-SEAP). As for the experimental part:
as §1
ELISAs were performed as follows. Polyclonal anti-rabbit IgG antibody (Jackson ImmunoResearch Laboratories, Catalog No. 711-005-152) was coated on the wells of a 96-well plate (Nunc, Catalog No. 442402). After overnight incubation at 4° C., the wells were blocked with 1× Block-Ace (DainipponPharma) for 1 hour at room temperature. After washing three times with 0.05% Tween 20/PBS, 10 nM rabbit polyclonal anti-PLAP antibody (Biomeda) was added to the wells (50 μl/well). […] An equal volume of stopping solution (2 M H₂SO₄) was added to the wells and the optical density at 450 nm was read by a microplate reader (Arvo, PerkinElmer).

B1: humanized anti-hFKN mAb H3-2L4-IgG2 (antibody, V domains shown)
VH: QVQLVQSGAEVKKPGASVKVSCKASGYTFTNYYIHWVKQAPGQGLEWIGWIYPGDGSPKFNERFKGRTTLTADKSTNTAYMLLSSLRSEDTAVYFCATGPTDGDYFDYWGQGTTVTVSS
VL: DIQMTQSPSSLSASVGDRVTITCRASGNIHNFLAWYQQKPGKAPKLLIYNEKTLADGVPSRFSGSGSGTDYTLTISSLQPEDFATYFCQQFWSTPYTFGGGTKVEIK
notes: also called H3-2L4 antibody
On to B1, for which the binding result in experiment [1] is given as “no binding (tested: 0.13 nM)”. Further, the “CTX (IC50, nM)” value in experiment [2] amounted to 0.2 nM.

B2: humanized anti-hFKN mAb H3-L4-IgG2 (antibody, V domains shown)
VH: QVQLVQSGAEVKKPGASVKVSCKASGYTFTNYYIHWVKQAPGQGLEWIGWIYPGDGSPKFNERFKGRTTLTADKSTNTAYMLLSSLRSDDTAVYFCATGPTDGDYFDYWGQGTTVTVSS
VL: DIQMTQSPSSLSASVGDRVTITCRASGNIHNFLAWYQQKPGKAPKLLIYNEKTLADGVPSRFSGSGSGTDYTLTISSLQPEDFATYFCQQFWSTPYTFGGGTKVEIK
As to B2, the binding result in experiment [3] is given as “binds”.

B3: humanized anti-hFKN mAb H3-2L2-IgG2 (antibody, V domains shown)
VH: QVQLVQSGAEVKKPGASVKVSCKASGYTFTNYYIHWVKQAPGQGLEWIGWIYPGDGSPKFNERFKGRTTLTADKSTNTAYMLLSSLRSEDTAVYFCATGPTDGDYFDYWGQGTTVTVSS
VL: DIQMTQSPSSLSASVGDRVTITCRASGNIHNFLAWYQQKPGKAPKFLVYNEKTLADGVPSRFSGSGSGTQYTLTISSLQPEDFATYFCQQFWSTPYTFGGGTKVEIK
In the case of B3, the binding result in experiment [3] was “binds”.

B4: humanized anti-hFKN mAb H3L2-IgG2 (antibody, V domains shown)
VH: QVQLVQSGAEVKKPGASVKVSCKASGYTFTNYYIHWVKQAPGQGLEWIGWIYPGDGSPKFNERFKGRTTLTADKSTNTAYMLLSSLRSDDTAVYFCATGPTDGDYFDYWGQGTTVTVSS
VL: DIQMTQSPSSLSASVGDRVTITCRASGNIHNFLAWYQQKPGKAPKFLVYNEKTLADGVPSRFSGSGSGTQYTLTISSLQPEDFATYFCQQFWSTPYTFGGGTKVEIK
Regarding B4, the binding result in experiment [3] is “binds”.

B5: mouse anti-hFKN mAb clone 3A5-2 (antibody, mouse IgG2a, V domains shown)
VH: QVQLQQSGPELVKPGASVKMSCKASGYTFTNYYIHWVKQRPGQGLEWIGWIYPGDGSPKFNERFKGKTTLTADKSSNTAYMLLSSLTSEDSAIYFCATGPTDGDYFDYWGQGTTLTVSS
VL: DIQMTQSPASLSASVGETVTITCRASGNIHNFLAWYQQKQGKSPQFLVYNEKTLADGVPSRFSGSGSGTQYSLKINSLQPEDFGIYFCQQFWSTPYTFGGGTKLEIK
notes: Mouse monoclonal from hybridoma; Heavy chain was amplified with a mouse IgG2a CH3 primer and light chain with a mouse Ckappa primer; also called m3A5-2; m3A5-2 mAb
As to B5, the binding result in experiment [4] was “binds”.

B6: mouse-human chimeric 3A5-2 mAb (antibody, human IgG2, V domains shown)
VH: QVQLQQSGPELVKPGASVKMSCKASGYTFTNYYIHWVKQRPGQGLEWIGWIYPGDGSPKFNERFKGKTTLTADKSSNTAYMLLSSLTSEDSAIYFCATGPTDGDYFDYWGQGTTLTVSS
VL: DIQMTQSPASLSASVGETVTITCRASGNIHNFLAWYQQKQGKSPQFLVYNEKTLADGVPSRFSGSGSGTQYSLKINSLQPEDFGIYFCQQFWSTPYTFGGGTKLEIK
notes: also called chimeric mAb
In the case of B6, in experiment [3], the binding result was “binds”.
